In paper doi:10.1101/2025.11.04.686567, “Models for the architecture of the human inner kinetochore CCAN complex on centromeric α-satellite CENP-A nucleosome arrays”:

Biological target: CCAN (CENP-C, CENP-LN, CENP-HIKM, CENP-OPQUR, CENP-TWSX) (Homo sapiens, UniProt Q03188;Q8N0S6;Q96H22;Q9H3R5;Q92674;Q9BS16;Q9NSP4;Q9BU64;Q6IPU0;Q7L2Z9;Q71F23;Q13 …)
Experiment: cryo-EM; mild cross-linking; 3.5 A; SEC on Superose 6 Increase or Agilent Bio SEC-5 1000A; buffer, salt, pH and temperature not given in the material
Details: protein: recombinant; copies: 1;1;1;1;1;1;1;1;1;1;1;1;1;1;1;1

B1: native alpha-satellite 171 bp DNA (dsDNA)
DNA 1: CCGCTTTGAGGCCTTCGTTGGAAACGGGAATATGTTCACATAAAAACTAGACAGAAGCATTCTCAGAAACTTCTATGTGATGTTTGCATTCAACTCATAGAGTTGAACATTCCTTTTCATAGAGCAGTTTTGAAACACTCTTTTTGTAGTATCTGGAATTGGACATTTGGA
DNA 2: TCCAAATGTCCAATTCCAGATACTACAAAAAGAGTGTTTCAAAACTGCTCTATGAAAAGGAATGTTCAACTCTATGAGTTGAATGCAAACATCACATAGAAGTTTCTGAGAATGCTTCTGTCTAGTTTTTATGTGAACATATTCCCGTTTCCAACGAAGGCCTCAAAGCGG
Does B1 bind?
Result: binds
